Reference: US20220177587A1, “METHODS AND USES OF VARIANT CD80 FUSION PROTEINS AND RELATED CONSTRUCTS” (Alpine Immune Sciences, Inc., priority 2018, published 2022)

What was measured:
[1] = target: CD28 (human) (UniProt P10747); experiment: flow cytometry, Jurkat cells (CD28)
[2] = target: human PD-L1 (human) (UniProt Q9NZQ7); experiment: flow cytometry, CHO cells stably expressing PD-L1
[3] = target: human CTLA-4 (human) (UniProt P16410); experiment: flow cytometry, CHO cells stably expressing CTLA4
Chain of human CTLA-4 (human) (P16410 36-223): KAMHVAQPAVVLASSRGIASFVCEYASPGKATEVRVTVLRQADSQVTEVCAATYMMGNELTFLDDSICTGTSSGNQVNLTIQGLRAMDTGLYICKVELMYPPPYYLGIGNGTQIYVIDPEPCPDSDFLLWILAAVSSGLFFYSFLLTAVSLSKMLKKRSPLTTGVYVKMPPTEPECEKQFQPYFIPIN

[4] = target: human PD-L1 (human) (UniProt Q9NZQ7)
[5] = target: CD28 (human) (UniProt P10747)
[6] = target: human CTLA-4 (human) (UniProt P16410); experiment: flow cytometry, CHO/CTLA4 cells; MFI over CD80 WT IgV-Fc
[7] = target: human PD-L1 (human) (UniProt Q9NZQ7); experiment: flow cytometry, CHO/PD-L1 cells; MFI over CD80 WT IgV-Fc
[8] = target: CD28 (human) (UniProt P10747); experiment: flow cytometry, Jurkat cells (CD28); MFI over CD80 WT IgV-Fc
[9] = target: CD28 (human) (UniProt P10747); remark: listed apart in the source
[10] = target: human PD-L1 (human) (UniProt Q9NZQ7); remark: listed apart in the source
[11] = target: CD28 (human) (UniProt P10747); remark: listed apart in the source
[12] = target: human PD-L1 (human) (UniProt Q9NZQ7); remark: listed apart in the source
[13] = target: CD28 (human) (UniProt P10747); remark: listed apart in the source

Chain of human PD-L1 (human) (Q9NZQ7 19-290): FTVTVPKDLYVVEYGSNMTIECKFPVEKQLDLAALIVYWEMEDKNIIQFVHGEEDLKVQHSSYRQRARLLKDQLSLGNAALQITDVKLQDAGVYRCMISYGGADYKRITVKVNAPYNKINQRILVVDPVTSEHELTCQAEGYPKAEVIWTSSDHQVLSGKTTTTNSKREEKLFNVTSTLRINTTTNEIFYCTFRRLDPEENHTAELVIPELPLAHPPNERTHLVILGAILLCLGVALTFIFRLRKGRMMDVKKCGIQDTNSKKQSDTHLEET

Row | Binder | IL2-luciferase reporter (RLU), fold increase over WT CD80-IgV-Fc at 5.0 nM [10] | IL2-luciferase reporter (RLU), fold increase over WT CD80-IgV-Fc at 5.0 nM [11] | RLU at 5.0 nM: Fold Increase over WT CD80-IgV-Fc [12] | RLU at 5.0 nM: Fold Increase over WT CD80-IgV-Fc [13] | other results
1 | CD80 E35D/D46V/M47L/V68M/L85Q/E88D IgV-Fc, GS(G4S)5 linker (Fc fusion) VIHVTKEVKEVATLSCGHNVSVEELAQTRIYWQKDKKMVLTMMSGVLNIWPEYKNRTIFDITNNLSIMILALRPSDEGTYECVVQKYDKDAFKREHLAEVTLSVKADGSGGGGSGGGGSGGGGSGGGGSGGGGS | – | – | – | – | MFI at 33.3 nM [1]: 143 MFI; MFI at 33.3 nM [2]: 22400 MFI; MFI at 33.3 nM [3]: 26600 MFI; IL2-luciferase reporter, fold increase in RLU over WT CD80-IgV-Fc at 5.0 nM [4]: 5.26 fold; IL2-luciferase reporter, fold increase in RLU over WT CD80-IgV-Fc at 5.0 nM [5]: 5.26 fold; Fold change to WT CD80 [6]: 22.2 fold; Fold change to WT CD80 [7]: 481 fold; Fold change to WT CD80 [8]: 2.6 fold
2 | variant CD80 IgV-Fc E35D/T57I/L70Q/A71D (Fc fusion) VIHVTKEVKEVATLSCGHNVSVEELAQTRIYWQKDKKMVLTMMSGDMNIWPEYKNRIIFDITNNLSIVIQDLRPSDEGTYECVVLKYEKDAFKREHLAEVTLSVKAD | – | – | – | – | Fold increase in IL2 reporter signal (Jurkat/IL2 reporter assay) (fold vs WT CD80 IgV-Fc) [9]: 0.07
3 | variant CD80 IgV-Fc V20I/M47V/T57I/V84I (Fc fusion) VIHVTKEVKEVATLSCGHNISVEELAQTRIYWQKEKKMVLTMMSGDVNIWPEYKNRIIFDITNNLSIVILALRPSDEGTYECVILKYEKDAFKREHLAEVTLSVKAD | – | – | – | – | Fold increase in IL2 reporter signal (Jurkat/IL2 reporter assay) (fold vs WT CD80 IgV-Fc) [9]: 0.45
4 | CD80 H18Y/E35D/M47L/A71G/A91S IgV-Fc (Fc fusion) VIHVTKEVKEVATLSCGYNVSVEELAQTRIYWQKDKKMVLTMMSGDLNIWPEYKNRTIFDITNNLSIVILGLRPSDEGTYECVVLKYEKDSFKREHLAEVTLSVKAD | 4.7 fold | 4.7 fold | – | – | –
5 | CD80 E35D/M47V IgV-Fc (Fc fusion) VIHVTKEVKEVATLSCGHNVSVEELAQTRIYWQKDKKMVLTMMSGDVNIWPEYKNRTIFDITNNLSIVILALRPSDEGTYECVVLKYEKDAFKREHLAEVTLSVKAD | 3.4 fold | 3.4 fold | – | – | –
6 | CD80 E35D/D46E/M47I IgV-Fc (Fc fusion) VIHVTKEVKEVATLSCGHNVSVEELAQTRIYWQKDKKMVLTMMSGEINIWPEYKNRTIFDITNNLSIVILALRPSDEGTYECVVLKYEKDAFKREHLAEVTLSVKAD | 4.8 fold | 4.8 fold | – | – | –
7 | CD80 E35D/L97R IgV-Fc (Fc fusion) VIHVTKEVKEVATLSCGHNVSVEELAQTRIYWQKDKKMVLTMMSGDMNIWPEYKNRTIFDITNNLSIVILALRPSDEGTYECVVLKYEKDAFKREHRAEVTLSVKAD | 2.3 fold | 2.3 fold | – | – | –
8 | CD80 IgV-Fc E35D/M47L/Y53F/V68M/A71G/K93R/E95V (Fc fusion) VIHVTKEVKEVATLSCGHNVSVEELAQTRIYWQKDKKMVLTMMSGDLNIWPEFKNRTIFDITNNLSIMILGLRPSDEGTYECVVLKYEKDAFRRVHLAEVTLSVKAD | – | – | 3.9 fold | 3.9 fold | –
9 | CD80 IgV-Fc E35D/M47V/N48K/V68M/A71G/L85M (Fc fusion) VIHVTKEVKEVATLSCGHNVSVEELAQTRIYWQKDKKMVLTMMSGDVKIWPEYKNRTIFDITNNLSIMILGLRPSDEGTYECVVMKYEKDAFKREHLAEVTLSVKAD | – | – | 3.6 fold | 3.6 fold | –
10 | CD80 IgV-Fc T13R/Q33R/E35D/M38I/M47L/V68M/E95V/L97Q (Fc fusion) VIHVTKEVKEVARLSCGHNVSVEELAQTRIYWRKDKKIVLTMMSGDLNIWPEYKNRTIFDITNNLSIMILALRPSDEGTYECVVLKYEKDAFKRVHQAEVTLSVKAD | – | – | 2.5 fold | 2.5 fold | –
